Measurements from publication PMC4752726.

Experiments:
Assay in all cases: BLI
[1] = molecular target: C-terminally biotinylated FcγRIIIa made from FcγRIIIa-ST-H6 by sortase-mediated ligation (human) (UniProt P08637)
[2] = molecular target: GlcNAc-IgG1 Fc glycoform (GlcNAc-Fc) (human)
[3] = molecular target: Man5-IgG1 Fc glycoform (Man5-Fc) (human)
[4] = molecular target: High mannose IgG1 Fc (HM-Fc), di-glycosylated form (human)

**Q.** Which results are given for “High mannose IgG1 Fc (HM-Fc), di-glycosylated form (domain or fragment)”?
**A.** Kd [1]: 26.4 nM; koff [1]: 0.0079 s⁻¹

**Q.** What does the source list for “GlcNAc-IgG1 Fc glycoform (GlcNAc-Fc) (domain or fragment)”?
**A.** Kd [1]: 995 nM; koff [1]: 0.161 s⁻¹

**Q.** How did the Kd [2] turn out when “soluble domain of FcγRIIIa with a C-terminal histidine tag (FcγRIIIa-H6) (receptor)” was run?
**A.** 1120 nM

**Q.** And the koff [2]?
**A.** 0.14 s⁻¹

**Q.** What about the kon [2] of the same substance?
**A.** 120000 M⁻¹ s⁻¹

**Q.** And the Kd [3]?
**A.** 31.8 nM

**Q.** And the koff [3]?
**A.** 0.0051 s⁻¹

**Q.** What about the kon [3] of the same substance?
**A.** 160000 M⁻¹ s⁻¹

**Q.** What about the Kd [4] of the same substance?
**A.** 27.7 nM

**Q.** And the koff [4]?
**A.** 0.0054 s⁻¹

**Q.** What about the kon [4] of the same substance?
**A.** 190000 M⁻¹ s⁻¹

**Q.** How did the Kd [1] turn out when “Man5-IgG1 Fc glycoform (Man5-Fc) (domain or fragment)” was run?
**A.** 32.8 nM
